The values below come from patent US20230192896A1 (BIOVERATIV THERAPEUTICS, published 2023).

The labels stand for the following.
B1: BIIB-12-1325 (antibody, V domains shown)
VH: QVQLVQSGAEVKKPGASVKVSCKASGYTFTSYYMVWVRQAPGQGLEWMGIINPSGGSTSYAQKFQGRVTMTRDTSTSTVYMELSSLRSEDTAVYYCARGGRYMLDPWGQGTLVTVSS
VL: DIQMTQSPSTLSASVGDRVTITCRASQSISSWLAWYQQKPGKAPKLLIYKASSLESGVPSRFSGSGSGTEFTLTISSLQPDDFATYYCQQSNRYPRTFGGGTKVEIK
notes: IgG
B2: BIIB-12-1333 (antibody, V domains shown)
VH: QVQLVQSGAEVKKPGASVKVSCKASGYTFTSYYMVWVRQAPGQGLEWMGIINPSGGSTSYAQKFQGRVTMTRDTSTSTVYMELSSLRSEDTAVYYCARVSRRDYPLAFDIWGQGTMVTVSS
VL: EIVMTQSPATLSVSPGERATLSCRASQSVSSNLAWYQQKPGQAPRLLIYGASTRATGIPARFSGSGSGTEFTLTISSLQSEDFAVYYCQQVNTWPTFGGGTKVEIK
notes: IgG
B3: BIIB-12-1322 (antibody, V domains shown)
VH: QVQLVQSGAEVKKPGASVKVSCKASGYTFTSYYIHWVRQAPGQGLEWMGIINPSGGSTSYAQKFQGRVTMTRDTSTSTVYMELSSLRSEDTAVYYCARSRQRHRGDWYFDLWGRGTLVTVSS
VL: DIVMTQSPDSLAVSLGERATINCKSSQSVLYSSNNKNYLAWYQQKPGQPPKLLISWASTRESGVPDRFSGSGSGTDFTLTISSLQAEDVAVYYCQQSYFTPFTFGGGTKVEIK
notes: IgG
B4: BIIB-12-1312 (antibody, V domains shown)
VH: QVQLVESGGGVVQPGRSLRLSCAASGFTFSSYGMHWVRQAPGKGLEWVAVISYDGSNKYYADSVKGRFTISRDNSKNTLYLQMNSLRAEDTAVYYCAKGMGHWIDYWGQGTLVTVSS
VL: DIQMTQSPSSVSASVGDRVTITCRASQGISSWLAWYQQKPGKAPKLLIYAASSLQSGVPSRFSGSGSGTDFTLTISSLQPEDFATYYCQQASSFPPTFGGGTKVEIK
notes: IgG
B5: BIIB-12-1332 (antibody, V domains shown)
VH: QVQLVQSGAEVKKPGASVKVSCKASGYTFTSYYMSWVRQAPGQGLEWMGIINPSGGSTSYAQKFQGRVTMTRDTSTSTVYMELSSLRSEDTAVYYCARLGRKSRVFDIWGQGTMVTVSS
VL: DIQMTQSPSSVSASVGDRVTITCRASQGISSWLAWYQQKPGKAPKLLIYAASSLQSGVPSRFSGSGSGTDFTLTISSLQPEDFATYYCQQVNSFPLTFGGGTKVEFK
notes: IgG
B6: BIIB-12-1307 (antibody, V domains shown)
VH: QVQLQESGPGLVKPSETLSLTCAVSGYSISSGYYWAWIRQPPGKGLEWIGSIYHSGSTYYNPSLKSRVTISVDTSKNQFSLKLSSVTAADTAVYYCARGPLPRSRGLAFDIWGQGTMVTVSS
VL: DIQLTQSPSSLSASVGDRVTITCRASQSISSFLNWYQQKPGKAPKLLIYAASSLQSGVPSRFSGSGSGTDFTLTISSLQPEDFATYYCQQTYSTPLTFGGGTKVEIK
notes: IgG
B7: BIIB-12-1323 (antibody, V domains shown)
VH: QVQLVQSGAEVKKPGASVKVSCKASGYTFTSYYIHWVRQAPGQGLEWMGIINPSGGSTSYAQKFQGRVTMTRDTSTSTVYMELSSLRSEDTAVYYCARGRRFPRGLDYWGQGTLVTVSS
VL: DIQMTQSPSSVSASVGDRVTITCRASQGISSWLAWYQQKPGKAPKLLIYAASSLQSGVPSRFSGSGSGTDFTLTISSLQPEDFATYYCQQANIFPFTFGGGTKVEIK
notes: IgG
B8: BIIB-12-1317 (antibody, V domains shown)
VH: QVQLVESGGGVVQPGRSLRLSCAASGFTFSSYGMHWVRQAPGKGLEWVAVISYDGSNKYYADSVKGRFTISRDNSKNTLYLQMNSLRAEDTAVYYCARGVGGHDTRWGQGTLVTVSS
VL: DIQMTQSPSSVSASVGDRVTITCRASQGISSWLAWYQQKPGKAPKLLIYAASSLQSGVPSRFSGSGSGTDFTLTISSLQPEDFATYYCQQRHSLPPTFGGGTKVEIK
notes: IgG
B9: BIIB-12-1324 (antibody, V domains shown)
VH: QVQLVQSGAEVKKPGASVKVSCKASGYTFTSYYMVWVRQAPGQGLEWMGIINPSGGSTSYAQKFQGRVTMTRDTSTSTVYMELSSLRSEDTAVYYCARLPRYSKRGLDVWGQGTMVTVSS
VL: EIVMTQSPATLSLSPGERATLSCRASQSVSSYLAWYQQKPGQAPRLLIYDSSNRATGIPARFSGSGSGTDFTLTISSLEPEDFAVYYCQQLVSWPTFGGGTKVEIK
notes: IgG
B10: BIIB-12-1326 (antibody, V domains shown)
VH: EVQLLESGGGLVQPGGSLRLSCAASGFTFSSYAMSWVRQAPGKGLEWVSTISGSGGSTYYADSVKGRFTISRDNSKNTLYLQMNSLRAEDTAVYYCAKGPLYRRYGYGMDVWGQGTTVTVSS
VL: EIVLTQSPGTLSLSPGERATLSCRASQSVRSSYLAWYQQKPGQAPRLLIYGASSRATGIPDRFSGSGSGTDFTLTISRLEPEDFAVYYCQQAYSSPLTFGGGTKVEIK
notes: IgG
B11: BIIB-12-1310 (antibody, V domains shown)
VH: EVQLVESGGGLVKPGGSLRLSCAASGFTFSSYSMNWVRQAPGKGLEWVSSISSSSSYIYYADSVKGRFTISRDNAKNSLYLQMNSLRAEDTAVYYCARLGGYGSSQRYFDLWGRGTLVTVSS
VL: EIVLTQSPATLSLSPGERATLSCRASQSVSRYLAWYQQKPGQAPRLLIYDASNRATGIPARFSGSGSGTDFTLTISSLEPEDFAVYYCEQASNWPPTFGGGTKVEIK
notes: IgG
B12: BIIB-12-1318 (antibody, V domains shown)
VH: QVQLVESGGGVVQPGRSLRLSCAASGFTFSSYGMHWVRQAPGKGLEWVAVISYDGSNKYYADSVKGRFTISRDNSKNTLYLQMNSLRAEDTAVYYCARKGDYRSGSYSGRAFGIWGQGTMVTVSS
VL: EIVLTQSPATLSLSPGERATLSCRASQSVSSYLAWYQQKPGQAPRLLIYDASNRATGIPARFSGSGSGTDFTLTISSLEPEDFAVYYCQQLNNWPPTFGGGTKVEIK
notes: IgG
B13: BIIB-12-1313 (antibody, V domains shown)
VH: QVQLVESGGGVVQPGRSLRLSCAASGFTFSSYGMHWVRQAPGKGLEWVAVISYDGSNKYYADSVKGRFTISRDNSKNTLYLQMNSLRAEDTAVYYCAKGTGWWRYWGQGTLVTVSS
VL: EIVMTQSPATLSVSPGERATLSCRASQSVSSNLAWYQQKPGQAPRLLIYGASTRATGIPARFSGSGSGTEFTLTISSLQSEDFAVYYCQQHNHLPITFGGGTKVEIK
notes: IgG
B14: BIIB-12-1328 (antibody, V domains shown)
VH: QLQLQESGPGLVKPSETLSLTCTVSGGSISSSSYYWGWIRQPPGKGLEWIGSIYYSGSTYYNPSLKSRVTISVDTSKNQFSLKLSSVTAADTAVYYCARDPAYYSGHDYYYYGMDVWGQGTTVTVSS
VL: EIVMTQSPATLSVSPGERATLSCRASQSVSSNLAWYQQKPGQAPRLLIYGASTRATGIPARFSGSGSGTEFTLTISSLQSEDFAVYYCQQPNSYPLTFGGGTKVEIK
notes: IgG
B15: BIIB-12-1329 (antibody, V domains shown)
VH: QVQLVESGGGVVQPGRSLRLSCAASGFTFSSYGMHWVRQAPGKGLEWVAVISYDGSNKYYADSVKGRFTISRDNSKNTLYLQMNSLRAEDTAVYYCARGGAGSRYFQHWGQGTLVTVSS
VL: EIVMTQSPATKSVSPGERATLSCRASQSVSSNLAWYQQKPGQAPRLLIYSASTRATGIPARFSGSGSGTEFTLTISSLQSEDFAVYYCQQVFNWPPTFGGGTKVKIK
notes: IgG
B16: BIIB-12-1327 (antibody, V domains shown)
VH: QVQLVESGGGVVQPGRSLRLSCAASGFTFSSYGMHWVRQAPGKGLEWVAVISYDGSNKYYADSVKGRFTISRDNSKNTLYLQMNSLRAEDTAVYYCAKLGLARGGGYGMDVWGQGTTVTVSS
VL: EIVMTQSPATQYVSPGERATLSCRASQSVSSNLAWYQQKPGQAPRLLIYGASTRATGIPARFSGSGSGTEFTLTISSLQSEDFAVYYCQQYHNFPPTFGGGTKVEIK
notes: IgG
B17: BIIB-12-1319 (antibody, V domains shown)
VH: QVQLVESGGGVVQPGRSLRLSCAASGFTFSSYGMHWVRQAPGKGLEWVAVISYDGSNKYYADSVKGRFTISRDNSKNTLYLQMNSLRAEDTAVYYCARTGYHRSVYYWGQGTLVTVSS
VL: EIVMTQSPATLSVSPGERATLSCRASQSVSSNLAWYQQKPGQAPRLLIYGASTRATGIPARFSGSGSGTEFTLTISSLQSEDFAVYYCQQASNFPPTFGGGTKVEI
notes: IgG
B18: BIIB-12-1330 (antibody, V domains shown)
VH: QVQLVESGGGVVQPGRSLRLSCAASGFTFSSYGMHWVRQAPGKGLEWVAVISYDGSNKYYADSVKGRFTISRDNSKNTLYLQMNSLRAEDTAVYYCAKGGSARWINIWGQGTTVTVSS
VL: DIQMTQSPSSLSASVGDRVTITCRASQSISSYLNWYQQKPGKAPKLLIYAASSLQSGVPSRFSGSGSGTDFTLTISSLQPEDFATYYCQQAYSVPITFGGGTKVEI
notes: IgG
B19: BIIB-12-1315 (antibody, V domains shown)
VH: QVQLVQSGAEVKKPGASVKVSCKASGYTFTSYYMVWVRQAPGQGLEWMGIINPSGGSTSYAQKFQGRVTMTRDTSTSTVYMELSSLRSEDTAVYYCARGRPSSKRVTYFDYWGQGTLVTVSS
VL: EIVMTQSPATLSVSPGERATLSCRASQSVSSNLAWYQQKPGQAPRLLIYGASTRATGIPARFSGSGSGTEFTLTISSLQSEDFAVYYCQQVFNWPPWTFGGGTKVEIK
notes: IgG
B20: BIIB-9-581 (antibody, V domains shown)
VH: QVQLVQSGAEVKKPGASVKVSCKASGYTFTSYYMHWVRQAPGQGLEWMGIINPSGGSTSYAQKFQGRVTMTRDTSTSTVYMELSSLRSEDTAVYYCARDPLYYREGYVFDYWGQGTLVTVSS
VL: DIQMTQSPSSLSASVGDRVTITCRASQSISSYLNWYQQKPGKAPKLLIYAASSLQSGVPSRFSGSGSGTDFTLTISSLQPEDFATYYCQQSDLFPFTFGGGTKVEIK
notes: IgG
B21: BIIB-9-606 (antibody, V domains shown)
VH: QVQLVQSGAEVKKPGASVKVSCKASGYTFTSYYMHWVRQAPGQGLEWMGIINPSGGSTSYAQKFQGRVTMTRDTSTSTVYMELSSLRSEDTAVYYCARTKWSSSPYGMDVWGQGTTVTVSS
VL: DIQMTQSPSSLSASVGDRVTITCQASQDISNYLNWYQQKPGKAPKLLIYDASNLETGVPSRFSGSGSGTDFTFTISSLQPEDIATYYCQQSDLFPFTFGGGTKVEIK
notes: IgG
B22: BIIB-9-569 (antibody, V domains shown)
VH: QVQLVQSGAEVKKPGASVKVSCKASGYTFTSYYMHWVRQAPGQGLEWMGIINPSGGSTSYAQKFQGRVTMTRDTSTSTVYMELSSLRSEDTAVYYCARDGSGYSPYSFDPWGQGTLVTVSS
VL: DIQMTQSPSSLSASVGDRVTITCQASQDISNYLNWYQQKPGKAPKLLIYDASNLATGVPSRFSGSGSGTDFTFTISSLQPEDIATYYCQQADDFPFTFGGGTKVEIK
notes: IgG

In one experiment the target is T1, non-activatable Factor X (FXn) (Homo sapiens (Human), UniProt P00742 41-488, single biotin on the C-terminal BioTag).
T1 construct: also called BIIB-FX-015
Description: BLI; class meaning: paragraph 285. (In general: Biolayer interferometry detects binding as a change in optical thickness at a sensor tip.)
Turning to B1, the binding result is reported as “binds”.
B2: the binding result is “binds”.
Same read-out and setting: to B3 belongs “binds”; to B4, “binds”; to B5, “binds”.
The same measure, in the same setting: to B6 belongs “binds”; to B7, “binds”.
For B8, the binding result was “binds”.
B9: the binding result was “binds”.
Same read-out and setting: in the case of B10 it was “binds”; in that of B11, “binds”.
Turning to B12, the binding result is given as “binds”.
For the molecule B13, the binding result is “binds”.
With B14, the binding result was “binds”.
On the same count and under the same terms, in the case of B15 it was “binds”.
The same measure, in the same setting: to B16 belongs “binds”.
Still for that read-out and setting: in the case of B17 it was “binds”; in that of B18, “binds”; in that of B19, “binds”.

A further experiment addresses T2, FIXa-SM (FIXa+EGR-CMK) (human, UniProt P00740 47-191; P00740 227-461, EGR-CMK (L-Glu-Gly-Arg chloromethyl ketone) covalently bound to the active site).
T2 construct: BLI antigen bought from Haematologic Technologies (HCIXA-EGR); also called FIXa with substrate mimic
Briefly: BLI; class meaning: paragraph 914.
Consider B20, for which the binding result was “binds”.
The same measure, in the same setting: to B21 belongs “binds”.
The same measure, in the same setting: to B22 belongs “binds”.
